Test results published in paper doi:10.1101/2023.08.18.553786.

How the values were obtained:
[1] = molecular target: CDTb, the cell-binding component of the C. difficile binary toxin (CDT), active wild type (Clostridioides difficile); experiment: cryo-EM structure
[2] = molecular target: CDTb^D623A/D734A, active Ca^2+-binding mutant of CDTb (Clostridioides difficile); experiment: cryo-EM structure

Substance: CDTb, the cell-binding component of the C. difficile binary toxin (CDT), active wild type (natural protein)
- stoichiometry N [1]: 7

Substance: CDTb^D623A/D734A, active Ca^2+-binding mutant of CDTb (natural protein)
- stoichiometry N [2]: 7
